Measured values as given in patent publication US20240166765A1 (ICONIC THERAPEUTICS, published 2024).
Positions count from the first letter of the chain named. Read-outs that look alike come from different tables or passages of the source.

What was measured:
[1] = molecular target: T1, human Tissue Factor on MDA-MB-231 cells (human, UniProt P13726 33-295); experiment: cell-based or functional assay
[2] = molecular target: T1, human Tissue Factor on MDA-MB-231 cells; experiment: cell-based or functional assay; remark: listed apart in the source
[3] = molecular target: T1, human Tissue Factor on MDA-MB-231 cells; experiment: flow cytometry, MDA-MB-231 cells; binding of 20 nM FVII-Fc-Alexa488 (competitor) left at 83 nM Ab
pig TF-His = molecular target: T2, pig TF-His (pig (Sus scrofa)); experiment: SPR (Biacore), antibody captured by anti-human IgG on CM5 chip, pig TF-His in solution, 1:1 model
T2 construct: also called pig TF ECD-His; pTF
T2 chain: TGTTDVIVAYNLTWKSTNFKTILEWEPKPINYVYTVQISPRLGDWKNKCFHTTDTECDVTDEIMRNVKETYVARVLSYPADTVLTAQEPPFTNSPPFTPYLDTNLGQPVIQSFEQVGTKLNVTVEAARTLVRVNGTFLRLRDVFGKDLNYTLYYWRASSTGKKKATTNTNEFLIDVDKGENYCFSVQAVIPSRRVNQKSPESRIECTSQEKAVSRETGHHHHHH

rabbit TF-His = molecular target: T3, rabbit TF-His (rabbit (Oryctolagus cuniculus), UniProt P24055 33-250); experiment: SPR (Biacore), antibody captured by anti-human IgG on CM5 chip, rabbit TF-His in solution, 1:1 model
T3 construct: also called rabbit TF ECD-His
T3 sequence (P24055 other isoform, or with tags, fused parts or gaps): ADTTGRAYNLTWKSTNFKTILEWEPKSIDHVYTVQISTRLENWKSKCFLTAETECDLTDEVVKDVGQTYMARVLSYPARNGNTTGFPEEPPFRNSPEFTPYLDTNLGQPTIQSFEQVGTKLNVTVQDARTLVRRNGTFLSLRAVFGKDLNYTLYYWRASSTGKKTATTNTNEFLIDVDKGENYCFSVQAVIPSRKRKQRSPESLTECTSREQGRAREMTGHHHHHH

[4] = molecular target: T1, human Tissue Factor on MDA-MB-231 cells; experiment: flow cytometry, MDA-MB-231 cells; binding of 20 nM FVII-Fc-Alexa488 (competitor) left at 250 nM Ab
[5] = molecular target: T1, human Tissue Factor on MDA-MB-231 cells; experiment: flow cytometry, MDA-MB-231 cells; binding of 20 nM FVII-Fc-Alexa488 (competitor) left at 9.25 nM Ab
[6] = molecular target: T4, human Tissue Factor (hTF), endogenously expressed on human TF-positive cells (human, UniProt P13726 33-295); experiment: cell-based or functional assay
[7] = molecular target: T4, human Tissue Factor (hTF), endogenously …; experiment: flow cytometry competition on A431 cells, 100 nM unlabelled antibody, competitor 20 nM 25A-Alexa488
[8] = molecular target: T4, human Tissue Factor (hTF), endogenously …; experiment: flow cytometry competition on A431 cells, 100 nM unlabelled antibody, competitor 20 nM 43Ea-Alexa488
relipidated TF [9] = molecular target: T5, relipidated TF (UniProt P13726 33-295, limits assumed); experiment: cell-based or functional assay
human TF ECD-His6 [10] = molecular target: T6, human TF ECD-His6 (human, UniProt P13726 33-251); experiment: BLI (ForteBio Octet)
T6 construct: made in Expi293 cells; the entry holds the ECD with the C-terminal TG-His6; also called TF-His; hTF

cynomolgus TF ECD-His6 [11] = molecular target: T7, cynomolgus TF ECD-His6 (cynomolgus monkey (Macaca fascicularis)); experiment: BLI (ForteBio Octet)
T7 construct: made in Expi293 cells; also called TF-His; cTF
T7 chain: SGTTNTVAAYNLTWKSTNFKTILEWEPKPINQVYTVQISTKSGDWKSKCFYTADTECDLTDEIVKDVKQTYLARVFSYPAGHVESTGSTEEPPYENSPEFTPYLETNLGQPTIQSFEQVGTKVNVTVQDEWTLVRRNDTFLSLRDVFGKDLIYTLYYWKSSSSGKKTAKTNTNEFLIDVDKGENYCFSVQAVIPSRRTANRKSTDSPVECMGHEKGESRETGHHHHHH

relipidated TF [12] = molecular target: T5, relipidated TF; experiment: cell-based or functional assay; remark: listed apart in the source
relipidated TF [13] = molecular target: T5, relipidated TF; experiment: cell-based or functional assay; remark: listed apart in the source
relipidated TF [14] = molecular target: T5, relipidated TF; experiment: cell-based or functional assay; remark: listed apart in the source
human TF ECD-His6 [15] = molecular target: T6, human TF ECD-His6; experiment: SPR (Biacore), antibody on chip, TF-His titrated
cynomolgus TF ECD-His6 [16] = molecular target: T7, cynomolgus TF ECD-His6; experiment: SPR (Biacore), antibody on chip, TF-His titrated
[17] = molecular target: rTF (rat TF) on HEK293 cells (rat, UniProt P42533 29-252); experiment: live cell staining of transfected HEK293, flow cytometry
rTF (rat TF) on HEK293 cells, sequence (P42533 29-252): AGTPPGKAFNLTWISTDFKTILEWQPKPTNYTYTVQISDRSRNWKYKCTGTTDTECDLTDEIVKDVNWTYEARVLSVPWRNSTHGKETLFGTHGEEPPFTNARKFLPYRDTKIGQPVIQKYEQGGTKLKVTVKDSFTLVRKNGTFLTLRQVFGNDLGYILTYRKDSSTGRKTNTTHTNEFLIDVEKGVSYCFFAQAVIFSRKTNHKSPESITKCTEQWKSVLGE

B1: 25G (antibody, human IgG1, kappa, V domains shown)
VH: QVQLVQSGAEVKKPGASVKVSCKASGYTFRSYGISWVRQAPGQGLEWMGWVAPYNGNTNYAQKLQGRVTMTTDTSTSTAYMELRSLRSDDTAVYYCARDAGTYSPYGYGMDVWGQGTTVTVSS
VL: DIQMTQSPSTLSASVGDRVTITCRASQSISSWLAWYQQKPGKAPKLLIYKASSLESGVPSRFSGSGSGTEFTLTISSLQPDDFATYYCQQFQSLPPFTFGGGTKVEIKR
notes: Human anti-TF IgG1
% FXa, 12.5 nM Ab [1]: 99%
% FXa, 25 nM Ab [1]: 109%
% FXa, 100 nM Ab [1]: 116%
% IL8, 2.56 nM Ab [2]: 60%
% IL8, 6.4 nM Ab [2]: 22%
% IL8, 16 nM Ab [2]: 16%
% IL8, 40 nM Ab [2]: 10%
% IL8, 100 nM Ab [2]: 9%
% FVIIa [3]: 93%

B2: 25A (antibody, human IgG1, V domains shown)
VH: B1 VH with R30D, S31V, V51I, Y106F
VL: DIQMTQSPSTLSASVGDRVTITCRASQSISSWLAWYQQKPGKAPKLLIYKASSLESGVPSRFSGSGSGTEFTLTISSLQPDDFATYYCQQFQSLPPFTFGGGTKVEIK
notes: Human IgG1; also called antibody 25A
Kd (pig TF-His): 18.7 nM
Kd (rabbit TF-His): 50.5 nM

B3: 25A (antibody, V domains shown)
VH: B1 VH with R30D, S31V, V51I, Y106F
VL: B2 VL
notes: Human anti-TF IgG1
% IL8, 2.56 nM Ab [2]: 43%
% IL8, 6.4 nM Ab [2]: 11%
% IL8, 16 nM Ab [2]: 10%
% IL8, 40 nM Ab [2]: 8%
% IL8, 100 nM Ab [2]: 9%
% FVIIa [3]: 97%
% FVIIa [4]: 98%
% FVIIa [5]: 100%

B4: anti-TF antibody 25G (antibody, human IgG1, kappa, V domains shown)
VH: B1 VH
VL: B1 VL
notes: Human IgG1
% GM-CSF, 2.56 nM antibody, MDA-MB-231 cells + FVIIa [6]: 77%
% GM-CSF, 6.4 nM antibody, MDA-MB-231 cells + FVIIa [6]: 39%
% GM-CSF, 16 nM antibody, MDA-MB-231 cells + FVIIa [6]: 32%
% GM-CSF, 40 nM antibody, MDA-MB-231 cells + FVIIa [6]: 18%
% GM-CSF, 100 nM antibody, MDA-MB-231 cells + FVIIa [6]: 19%
% 25A binding [7]: 7%
% 43Ea binding [8]: 3%

B5: 25G (antibody, human IgG1, kappa, V domains shown)
VH: B1 VH
VL: B1 VL
notes: Human IgG1; also called antibody 25G
Kd (pig TF-His): 26 nM
Kd (rabbit TF-His): 75.5 nM

B6: 25A5 (antibody, human IgG1, kappa, V domains shown)
VH: B1 VH with R30D, S31V, V51I, N55S, Y106F
VL: B1 VL with Q27E, S31N, S52Y, S56Y, S93K
notes: Human IgG1; also called antibody 25A5
Kd (pig TF-His): 5.2 nM
Kd (rabbit TF-His): 5.4 nM

B7: 25G1 (antibody, human IgG1, kappa, V domains shown)
VH: B1 VH with N55S
VL: B1 VL with Q27H, S30D, S53Y, Q90L
notes: Human IgG1; also called antibody 25G1
Kd (pig TF-His): 2.6 nM
Kd (rabbit TF-His): 3.6 nM

B8: 25A5-T (antibody, human IgG1, kappa, V domains shown)
VH: B1 VH with R30D, S31A, V51I, N55S, Y106F
VL: B1 VL with Q27E, S31N, S52Y, S56Y, S93K
notes: Human IgG1
Kd (pig TF-His): 4.5 nM
Kd (rabbit TF-His): 5.4 nM

B9: 25G9 (antibody, human IgG1, kappa, V domains shown)
VH: B1 VH with N55S
VL: B1 VL with R24Q, S30D, K50S, S53Y, Q90R
notes: Human IgG1; also called antibody 25G9
Kd (pig TF-His): 3.3 nM
Kd (rabbit TF-His): 4.2 nM

B10: 43D7 (antibody, human IgG1, kappa, V domains shown)
VH: QVQLQQWGAGLLKPSETLSLTCAVYGGSLSGYYWSWIRQPPGKGLEWIGEIGASGSTRYNPSLKSRVTISVDTSKNQFSLKLSSVTAADTAVYYCARDTPYYYEGGYYYYMDVWGKGTTVTVSS
VL: EIVLTQSPGTLSLSPGERATLSCRASDSVDSSYLAWYQQKPGQAPRLLIYGAFSRANGIPDRFSGSGSGTDFTLTISRLEPEDFAVYYCQQAGVVPYTFGGGTKVEIKR
notes: Human IgG1; also called antibody 43D7
Kd (pig TF-His): 8.8 nM
Kd (rabbit TF-His): 6.8 nM

B11: 43D8 (antibody, human IgG1, kappa, V domains shown)
VH: B10 VH
VL: B10 VL with D27Q, D30S, Y33F, F53Y, N57T
notes: Human IgG1; also called antibody 43D8; 43D8 mAb
Kd (pig TF-His): 19.2 nM
Kd (rabbit TF-His): 7.7 nM

B12: 39A (antibody, human IgG1, V domains shown)
VH: QVQLVQSGAEVKKPGSSVKVSCKASGGTFSSNAIGWVRQAPGQGLEWMGSIIPIIGFANYAQKFQGRVTITADESTSTAYMELSSLRSEDTAVYYCARDSGYYYGASSFGMDVWGQGTTVTVSS
VL: EIVMTQSPATLSVSPGERATLSCRASQSVSSNLAWYQQKPGQAPRLLIYGASTRATGIPARFSGSGSGTEFTLTISSLQSEDFAVYYCEQYNNLPLTFGGGTKVEIK
notes: human IgG1
decrease of peak IIa concentration, TGA with 10 min pre-incubation, 100 nM Ab (relipidated TF [9]): 93%
decrease of peak IIa concentration, TGA without pre-incubation, 100 nM Ab (relipidated TF [9]): 91%
Kd (human TF ECD-His6 [10]): 0.83 nM
Kd (cynomolgus TF ECD-His6 [11]): 0.57 nM
TGA without pre-incubation, 10 nM Ab: % ETP (relipidated TF [12]): 55%
TGA without pre-incubation, 10 nM Ab: % Peak IIa (relipidated TF [12]): 20%
TGA without pre-incubation, 10 nM Ab: ETP (relipidated TF [12]): 1330 nM·min
TGA without pre-incubation, 10 nM Ab: Lag Time (relipidated TF [12]): 12.1 min
TGA without pre-incubation, 10 nM Ab: Peak IIa (relipidated TF [12]): 82 nM
TGA without pre-incubation, 10 nM Ab: ttPeak (relipidated TF [12]): 19.6 min
TGA without pre-incubation, 50 nM Ab: % Peak IIa (relipidated TF [12]): 7%
TGA without pre-incubation, 50 nM Ab: Lag Time (relipidated TF [12]): 30.5 min
TGA without pre-incubation, 50 nM Ab: Peak IIa (relipidated TF [12]): 30 nM
TGA without pre-incubation, 50 nM Ab: ttPeak (relipidated TF [12]): 40 min
TGA without pre-incubation, 100 nM Ab: % Peak IIa (relipidated TF [12]): 6%
TGA without pre-incubation, 100 nM Ab: Lag Time (relipidated TF [12]): 28.9 min
TGA without pre-incubation, 100 nM Ab: Peak IIa (relipidated TF [12]): 26 nM
TGA without pre-incubation, 100 nM Ab: ttPeak (relipidated TF [12]): 40.1 min
TGA without pre-incubation, 10 nM Ab: % ETP (relipidated TF [13]): 58%
TGA without pre-incubation, 10 nM Ab: % Peak IIa (relipidated TF [13]): 24%
TGA without pre-incubation, 10 nM Ab: ETP (relipidated TF [13]): 1330 nM·min
TGA without pre-incubation, 10 nM Ab: Lag Time (relipidated TF [13]): 12.4 min
TGA without pre-incubation, 10 nM Ab: Peak IIa (relipidated TF [13]): 84 nM
TGA without pre-incubation, 10 nM Ab: ttPeak (relipidated TF [13]): 20.7 min
TGA without pre-incubation, 50 nM Ab: % Peak IIa (relipidated TF [13]): 8%
TGA without pre-incubation, 50 nM Ab: Lag Time (relipidated TF [13]): 33.1 min
TGA without pre-incubation, 50 nM Ab: Peak IIa (relipidated TF [13]): 29 nM
TGA without pre-incubation, 50 nM Ab: ttPeak (relipidated TF [13]): 43.2 min
TGA without pre-incubation, 100 nM Ab: % Peak IIa (relipidated TF [13]): 6%
TGA without pre-incubation, 100 nM Ab: Lag Time (relipidated TF [13]): 38.1 min
TGA without pre-incubation, 100 nM Ab: Peak IIa (relipidated TF [13]): 22 nM
TGA without pre-incubation, 100 nM Ab: ttPeak (relipidated TF [13]): 48.3 min
TGA with 10 min pre-incubation, 10 nM Ab: % Peak IIa (relipidated TF [14]): 11%
TGA with 10 min pre-incubation, 10 nM Ab: Lag Time (relipidated TF [14]): 20.9 min
TGA with 10 min pre-incubation, 10 nM Ab: Peak IIa (relipidated TF [14]): 30 nM
TGA with 10 min pre-incubation, 10 nM Ab: ttPeak (relipidated TF [14]): 30.8 min
TGA with 10 min pre-incubation, 50 nM Ab: % Peak IIa (relipidated TF [14]): 8%
TGA with 10 min pre-incubation, 50 nM Ab: Lag Time (relipidated TF [14]): 29 min
TGA with 10 min pre-incubation, 50 nM Ab: Peak IIa (relipidated TF [14]): 21 nM
TGA with 10 min pre-incubation, 50 nM Ab: ttPeak (relipidated TF [14]): 39.7 min
TGA with 10 min pre-incubation, 100 nM Ab: % Peak IIa (relipidated TF [14]): 6%
TGA with 10 min pre-incubation, 100 nM Ab: Lag Time (relipidated TF [14]): 32.1 min
TGA with 10 min pre-incubation, 100 nM Ab: Peak IIa (relipidated TF [14]): 17 nM
TGA with 10 min pre-incubation, 100 nM Ab: ttPeak (relipidated TF [14]): 43.2 min
Kd (human TF ECD-His6 [15]): 0.09 nM
Kd (cynomolgus TF ECD-His6 [16]): 0.08 nM
binding result [17]: no binding (tested: 15 µg/ml (100 nM))
